Experimental findings from PMC8001920, “Selecting Subpopulations of High-Quality Protein Conformers among Conformational Mixtures of Recombinant Bovine MMP-9 Solubilized from Inclusion Bodies” (International Journal of Molecular Sciences, 2021) are described below.

This series deals with the molecule itself. The series is described as follows: SDS-PAGE and Western blot; IMAC peaks of solubilized MMP-9 from L. lactis, mixed 1:1 with Laemmli buffer, boiled at 90 °C for 10 min, run with 0.1% SDS, detected with anti-His-tag monoclonal antibody; bands of high molecular weight. For orientation: Immunoblotting shows a protein as a band on a membrane.

B1: recombinant bovine MMP-9 fragment (Phe107-Pro449), C-terminally His-tagged, produced in L. lactis (domain or fragment)
chain: not shown
notes: matrix metalloproteinase 9 (MMP-9), bovine, fragment Phe107-Pro449 of NCBI NM_174744.2; The same fragment was also made in Clearcoli BL21(DE3) (pETDuet); no result on self-association is told for that material; also called matrix metalloproteinase 9; solubilized MMP-9; not shown: 6His-tag, C-terminal, kept
In the case of B1, the binding result is “binds”.
